Experimental data published in patent US20030148417.

What was measured:
[1] = target: bovine haemoglobin, P01966
Chain of bovine haemoglobin, P01966 (P01966 2-142, chain 1 of 2): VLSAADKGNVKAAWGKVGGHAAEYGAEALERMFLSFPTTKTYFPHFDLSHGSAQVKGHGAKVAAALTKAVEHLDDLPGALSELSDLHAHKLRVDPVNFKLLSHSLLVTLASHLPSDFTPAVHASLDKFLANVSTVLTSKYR
Chain of bovine haemoglobin, P01966 (chain, as listed by the source, chain 2 of 2): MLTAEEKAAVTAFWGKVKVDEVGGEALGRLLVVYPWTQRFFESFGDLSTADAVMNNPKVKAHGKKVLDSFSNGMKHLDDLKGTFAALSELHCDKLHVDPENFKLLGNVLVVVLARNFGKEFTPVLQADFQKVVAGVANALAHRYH

B1: recombinant TcAP2 protein (aspartic endoproteinase from Theobroma cacao, secreted by Yarrowia lipolytica clone pCY330-33) (protein)
chain: VSNDGLVRIGLKKMKLDPNNRLAARLDSKDGEALRAFIKKYRFRNNLGDSEETDIVALKNYMDAQYYGEIGIGTPTQKFTVIFDTGSSNLWVSSTKCYFSVACYFHEKYKASDSSTYKKDGKPASIQYGTGAISGFFSYDHVQVGDLVVKDQEFIEATKEPGLTFMVAKFDGILGLGFKEISVGDAVPVWYNMIKQGLIKEPVFSFWLNRNVDEEAGGEIVFGGVDPNHYKGKHTYVPVTQKGYWQFDMGDVLIADKPTGYCAGSCAAIADSGTSLLAGPSTVITMINHAIGATGVVSQECKAVVQQYGRTIIDLLIAEAQPQKICSQIGLCTFNGAHGVSTGIESVVDESNGKSSGVLRDAMCPACEMAVVWMQNQVRQNQTQDRILSYVNELCDRVPNPMGESAVDCGSLSSMPTISFTIGGKVFDLTPEEYILKVGEGSEAQCISGFTALDIPPPRGPLWILGDIFMGRYHTVFDFGKLRVGFAEAAHHH
endoprotease activity (hydrolysis of bovine haemoglobin) (Pepstatin A): completely inhibited by 2 µM pepstatin | pepstatin insensitive activity (hydrolysis of bovine haemoglobin, 2 µM pepstatin) (Pepstatin A): 1.91±1.26 pmoles L-leucine/min/mg protein, 6.65% | hydrolysis of bovine haemoglobin (OPA assay, pH 3, 42 C) [1]: 25.8±1.45 pmoles L-leucine/min/mg protein
